Source: article PMC4718643, “Characterization of a Mannose-6-Phosphate Isomerase from Bacillus amyloliquefaciens and Its Application in Fructose-6-Phosphate Production” (PLoS ONE, 2015)

Substrate: O=P(O)(O)OC[C@H]1OC(O)[C@@H](O)[C@@H](O)[C@@H]1O
Assay: purified protein
Assay type: biochemical, Bacillus amyloliquefaciens
Conditions: 0.5 mM Co2+ (general method), phosphate pH 7.5, 50 °C

B1: BsM6PI (Bacillus subtilis subsp. subtilis str. 168; K96Q) (protein)
chain: MTQSPIFLTPVFKEKIWGGTALRDRFGYSIPSESTGECWAISAHPKGPSTVANGPYKGKTLIELWEEHREVFGGVEGDRFPLLTKLLDVKEDTSIQVHPDDYYAGENEEGELGKTECWYIIDCKENAEIIYGHTARSKTELVTMINSGDWEGLLRRIKIKPGDFYYVPSGTLHALCKGALVLETQQNSDATYRVYDYDRLDSNGSPRELHFAKAVNAATVPHVDGYIDESTESRKGITIKTFVQGEYFSVYKWDINGEAEMAQDESFLICSVIEGSGLLKYEDKTCPLKKGDHFILPAQMPDFTIKGTCTLIVSHI
notes: full length, N-terminal His6 fusion (pET28a, BamHI/SalI), E. coli BL21(DE3), Ni-NTA; primers encode N-terminus MTQS and C-terminus IVSHI
With B1 the Km was 12 mM.
